Experimental data published in patent US20140087995A1 (published 2014).
Numbered stars: 1 amine (or outer) side, 2 acyl side, 3 side chain; on linkers, the order of the positions; unused ones are H or OH. Bridge positions count the residues as written; N and C are the ends. Side chains are listed from the residue outwards. Ends that are not written are not given here. * marks the point of attachment. C20 diacid = O=C(O)CCCCCCCCCCCCCCCCCCC(=O)*; γGlu = O=C(O)[C@H](CCC(=O)[*:2])N[*:1]; AEEA = NCCOCCOCC(=O)O

T1: human calcitonin receptor (human, UniProt P30988 25-474)
T1 construct: whole, on cells; also called hCTR; hCT
T1 sequence (looked up): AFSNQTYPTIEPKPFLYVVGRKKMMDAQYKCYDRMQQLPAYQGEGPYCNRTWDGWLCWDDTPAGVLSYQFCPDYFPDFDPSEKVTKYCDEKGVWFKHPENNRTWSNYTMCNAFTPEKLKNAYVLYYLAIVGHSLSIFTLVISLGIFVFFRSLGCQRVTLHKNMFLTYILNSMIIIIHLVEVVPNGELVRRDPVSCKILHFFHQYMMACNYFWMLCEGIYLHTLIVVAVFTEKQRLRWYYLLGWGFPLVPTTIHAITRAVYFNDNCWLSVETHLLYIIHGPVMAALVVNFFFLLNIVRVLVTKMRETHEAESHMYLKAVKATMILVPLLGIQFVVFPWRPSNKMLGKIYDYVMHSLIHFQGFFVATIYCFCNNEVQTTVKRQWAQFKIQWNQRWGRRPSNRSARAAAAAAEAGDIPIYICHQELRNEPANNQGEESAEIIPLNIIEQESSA


Key:
[1] = biological target: T1, human calcitonin receptor; assay: SPA competition binding, membranes with human calcitonin receptor, displacement of 125I-calcitonin (Assay VII)
Method in brief: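 BHK hCTR membranes 35 ng/μL + SPA beads 0.05 mg/well; buffer 50 mM Hepes pH 7.4, 1 mM CaCl2, 5 mM MgCl₂, 0.1% OA, 0.02% Tween20. 120 min, 25° C., shaking. Scintillation count; IC50 by one-site binding competition.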

[2] = biological target: T1, human calcitonin receptor; assay: ratio of IC50 at hCTR to IC50 at the human amylin receptor (reference)
Method in brief: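 IC₅₀ values were derived by one-site competition analysis of SPA counts. Cell membranes (35 ng/μL) with SPA beads were incubated with test compounds for 120 min at 25° C in Hepes buffer, pH 7.4, containing CaCl2, MgCl₂, OA and Tween20.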

Binder	IC50 [1]	Ratio hCT/hAmylin binding [2]
{C20 diacid-γGlu}-KCNTATCATQRLAHFLRHSSPNFGAIPSSTNVGSETY-NH2 (disulfide 2-7; SMILES CC[C@H](C)[C@H](NC(=O)[C@H](C)NC(=O)CNC(=O)[C@H](Cc1ccccc1)NC(=O)[C@H](CC(N)=O)NC(=O)[C@@H]1CCCN1C(=O)[C@H](CO)NC(=O)[C@H](CO)NC(=O)[C@H](Cc1c[nH]cn1)NC(=O)[C@H](CCCNC(=N)N)NC(=O)[C@H](CC(C)C)NC(=O)[C@H](Cc1ccccc1)NC(=O)[C@H](Cc1c[nH]cn1)NC(=O)[C@H](C)NC(=O)[C@H](CC(C)C)NC(=O)[C@H](CCCNC(=N)N)NC(=O)[C@H](CCC(N)=O)NC(=O)[C@@H](NC(=O)[C@H](C)NC(=O)[C@@H]1CSSC[C@H](NC(=O)[C@H](CCCCN)NC(=O)CC[C@H](NC(=O)CCCCCCCCCCCCCCCCCCC(=O)O)C(=O)O)C(=O)N[C@@H](CC(N)=O)C(=O)N[C@@H]([C@@H](C)O)C(=O)N[C@@H](C)C(=O)N[C@@H]([C@@H](C)O)C(=O)N1)[C@@H](C)O)C(=O)N1CCC[C@H]1C(=O)N[C@@H](CO)C(=O)N[C@@H](CO)C(=O)N[C@H](C(=O)N[C@@H](CC(N)=O)C(=O)N[C@H](C(=O)NCC(=O)N[C@@H](CO)C(=O)N[C@@H](CCC(=O)O)C(=O)N[C@H](C(=O)N[C@@H](Cc1ccc(O)cc1)C(N)=O)[C@@H](C)O)C(C)C)[C@@H](C)O, also called compound 30)	21.6 nM	23.6
{C20 diacid-γGlu-γGlu}-KCNTATCATQRLAEFLRHSSPNFGAIPSSTNVGSNTP-NH2 (disulfide 2-7; SMILES CC[C@H](C)[C@H](NC(=O)[C@H](C)NC(=O)CNC(=O)[C@H](Cc1ccccc1)NC(=O)[C@H](CC(N)=O)NC(=O)[C@@H]1CCCN1C(=O)[C@H](CO)NC(=O)[C@H](CO)NC(=O)[C@H](Cc1c[nH]cn1)NC(=O)[C@H](CCCNC(=N)N)NC(=O)[C@H](CC(C)C)NC(=O)[C@H](Cc1ccccc1)NC(=O)[C@H](CCC(=O)O)NC(=O)[C@H](C)NC(=O)[C@H](CC(C)C)NC(=O)[C@H](CCCNC(=N)N)NC(=O)[C@H](CCC(N)=O)NC(=O)[C@@H](NC(=O)[C@H](C)NC(=O)[C@@H]1CSSC[C@H](NC(=O)[C@H](CCCCN)NC(=O)CC[C@H](NC(=O)CC[C@H](NC(=O)CCCCCCCCCCCCCCCCCCC(=O)O)C(=O)O)C(=O)O)C(=O)N[C@@H](CC(N)=O)C(=O)N[C@@H]([C@@H](C)O)C(=O)N[C@@H](C)C(=O)N[C@@H]([C@@H](C)O)C(=O)N1)[C@@H](C)O)C(=O)N1CCC[C@H]1C(=O)N[C@@H](CO)C(=O)N[C@@H](CO)C(=O)N[C@H](C(=O)N[C@@H](CC(N)=O)C(=O)N[C@H](C(=O)NCC(=O)N[C@@H](CO)C(=O)N[C@@H](CC(N)=O)C(=O)N[C@H](C(=O)N1CCC[C@H]1C(N)=O)[C@@H](C)O)C(C)C)[C@@H](C)O, also called compound 14)	0.432 nM	2.2
K([AEEA-AEEA-γGlu-C20 diacid])CNTATCATQRLANFLRHSSPNFGAIPSSTNVGSETY-NH2 (disulfide 2-7; N-terminus assumed; SMILES CC[C@H](C)[C@H](NC(=O)[C@H](C)NC(=O)CNC(=O)[C@H](Cc1ccccc1)NC(=O)[C@H](CC(N)=O)NC(=O)[C@@H]1CCCN1C(=O)[C@H](CO)NC(=O)[C@H](CO)NC(=O)[C@H](Cc1c[nH]cn1)NC(=O)[C@H](CCCNC(=N)N)NC(=O)[C@H](CC(C)C)NC(=O)[C@H](Cc1ccccc1)NC(=O)[C@H](CC(N)=O)NC(=O)[C@H](C)NC(=O)[C@H](CC(C)C)NC(=O)[C@H](CCCNC(=N)N)NC(=O)[C@H](CCC(N)=O)NC(=O)[C@@H](NC(=O)[C@H](C)NC(=O)[C@@H]1CSSC[C@H](NC(=O)[C@@H](N)CCCCNC(=O)COCCOCCNC(=O)COCCOCCNC(=O)CC[C@H](NC(=O)CCCCCCCCCCCCCCCCCCC(=O)O)C(=O)O)C(=O)N[C@@H](CC(N)=O)C(=O)N[C@@H]([C@@H](C)O)C(=O)N[C@@H](C)C(=O)N[C@@H]([C@@H](C)O)C(=O)N1)[C@@H](C)O)C(=O)N1CCC[C@H]1C(=O)N[C@@H](CO)C(=O)N[C@@H](CO)C(=O)N[C@H](C(=O)N[C@@H](CC(N)=O)C(=O)N[C@H](C(=O)NCC(=O)N[C@@H](CO)C(=O)N[C@@H](CCC(=O)O)C(=O)N[C@H](C(=O)N[C@@H](Cc1ccc(O)cc1)C(N)=O)[C@@H](C)O)C(C)C)[C@@H](C)O, also called compound 25)	43.4 nM	56.5
K([AEEA-γGlu-C20 diacid])CNTATCATQRLANFLRHSSPNFGAIPSSTNVGSETY-NH2 (disulfide 2-7; N-terminus assumed; SMILES CC[C@H](C)[C@H](NC(=O)[C@H](C)NC(=O)CNC(=O)[C@H](Cc1ccccc1)NC(=O)[C@H](CC(N)=O)NC(=O)[C@@H]1CCCN1C(=O)[C@H](CO)NC(=O)[C@H](CO)NC(=O)[C@H](Cc1c[nH]cn1)NC(=O)[C@H](CCCNC(=N)N)NC(=O)[C@H](CC(C)C)NC(=O)[C@H](Cc1ccccc1)NC(=O)[C@H](CC(N)=O)NC(=O)[C@H](C)NC(=O)[C@H](CC(C)C)NC(=O)[C@H](CCCNC(=N)N)NC(=O)[C@H](CCC(N)=O)NC(=O)[C@@H](NC(=O)[C@H](C)NC(=O)[C@@H]1CSSC[C@H](NC(=O)[C@@H](N)CCCCNC(=O)COCCOCCNC(=O)CC[C@H](NC(=O)CCCCCCCCCCCCCCCCCCC(=O)O)C(=O)O)C(=O)N[C@@H](CC(N)=O)C(=O)N[C@@H]([C@@H](C)O)C(=O)N[C@@H](C)C(=O)N[C@@H]([C@@H](C)O)C(=O)N1)[C@@H](C)O)C(=O)N1CCC[C@H]1C(=O)N[C@@H](CO)C(=O)N[C@@H](CO)C(=O)N[C@H](C(=O)N[C@@H](CC(N)=O)C(=O)N[C@H](C(=O)NCC(=O)N[C@@H](CO)C(=O)N[C@@H](CCC(=O)O)C(=O)N[C@H](C(=O)N[C@@H](Cc1ccc(O)cc1)C(N)=O)[C@@H](C)O)C(C)C)[C@@H](C)O, also called compound 26)	25.3 nM	47.5

Results, then the binder that gave them:

IC50 [1]	Ratio hCT/hAmylin binding [2]	Binder
9.73 nM	12.3	{C20 diacid-γGlu}-KCNTATCATQRLAEFLRHSSPNFGAIPSSTNVGSETY-NH2 (disulfide 2-7; SMILES CC[C@H](C)[C@H](NC(=O)[C@H](C)NC(=O)CNC(=O)[C@H](Cc1ccccc1)NC(=O)[C@H](CC(N)=O)NC(=O)[C@@H]1CCCN1C(=O)[C@H](CO)NC(=O)[C@H](CO)NC(=O)[C@H](Cc1c[nH]cn1)NC(=O)[C@H](CCCNC(=N)N)NC(=O)[C@H](CC(C)C)NC(=O)[C@H](Cc1ccccc1)NC(=O)[C@H](CCC(=O)O)NC(=O)[C@H](C)NC(=O)[C@H](CC(C)C)NC(=O)[C@H](CCCNC(=N)N)NC(=O)[C@H](CCC(N)=O)NC(=O)[C@@H](NC(=O)[C@H](C)NC(=O)[C@@H]1CSSC[C@H](NC(=O)[C@H](CCCCN)NC(=O)CC[C@H](NC(=O)CCCCCCCCCCCCCCCCCCC(=O)O)C(=O)O)C(=O)N[C@@H](CC(N)=O)C(=O)N[C@@H]([C@@H](C)O)C(=O)N[C@@H](C)C(=O)N[C@@H]([C@@H](C)O)C(=O)N1)[C@@H](C)O)C(=O)N1CCC[C@H]1C(=O)N[C@@H](CO)C(=O)N[C@@H](CO)C(=O)N[C@H](C(=O)N[C@@H](CC(N)=O)C(=O)N[C@H](C(=O)NCC(=O)N[C@@H](CO)C(=O)N[C@@H](CCC(=O)O)C(=O)N[C@H](C(=O)N[C@@H](Cc1ccc(O)cc1)C(N)=O)[C@@H](C)O)C(C)C)[C@@H](C)O, also called compound 22)
2.64 nM	34.7	K([AEEA-C20 diacid])CNTATCATQRLANFLRHSSPNFGAIPSSTNVGSNTY-NH2 (disulfide 2-7; N-terminus assumed; SMILES CC[C@H](C)[C@H](NC(=O)[C@H](C)NC(=O)CNC(=O)[C@H](Cc1ccccc1)NC(=O)[C@H](CC(N)=O)NC(=O)[C@@H]1CCCN1C(=O)[C@H](CO)NC(=O)[C@H](CO)NC(=O)[C@H](Cc1c[nH]cn1)NC(=O)[C@H](CCCNC(=N)N)NC(=O)[C@H](CC(C)C)NC(=O)[C@H](Cc1ccccc1)NC(=O)[C@H](CC(N)=O)NC(=O)[C@H](C)NC(=O)[C@H](CC(C)C)NC(=O)[C@H](CCCNC(=N)N)NC(=O)[C@H](CCC(N)=O)NC(=O)[C@@H](NC(=O)[C@H](C)NC(=O)[C@@H]1CSSC[C@H](NC(=O)[C@@H](N)CCCCNC(=O)COCCOCCNC(=O)CCCCCCCCCCCCCCCCCCC(=O)O)C(=O)N[C@@H](CC(N)=O)C(=O)N[C@@H]([C@@H](C)O)C(=O)N[C@@H](C)C(=O)N[C@@H]([C@@H](C)O)C(=O)N1)[C@@H](C)O)C(=O)N1CCC[C@H]1C(=O)N[C@@H](CO)C(=O)N[C@@H](CO)C(=O)N[C@H](C(=O)N[C@@H](CC(N)=O)C(=O)N[C@H](C(=O)NCC(=O)N[C@@H](CO)C(=O)N[C@@H](CC(N)=O)C(=O)N[C@H](C(=O)N[C@@H](Cc1ccc(O)cc1)C(N)=O)[C@@H](C)O)C(C)C)[C@@H](C)O, also called compound 43) [N^ε1-[2-[2-[2-(19-carboxynonadecanoylamino)ethoxy]ethoxy]acetyl]-[Arg17,Pro21,Pro27]-h-amylin]
